The record followed here is doi:10.1101/2025.10.26.684595.

As usually defined, the stoichiometry N is a count of units in the complex or per binding partner.

The target of experiment [1] is human PIEZO2 in the cryo-EM complexes with MDFIC and MDFIC2 (human) (UniProt Q9H5I5). The experiment can be described thus: cryo-EM structure.
The target in experiment [2] is mouse PIEZO1 in the cryo-EM complex with mouse MDFI (mouse) (UniProt E2JF22). The experiment can be described thus: cryo-EM structure. To be noted: remark: other sources report otherwise.

“human PIEZO2 in the cryo-EM complexes with MDFIC and MDFIC2, Q9H5I5” gave a stoichiometry N in experiment [1] of 3.

In experiment [2], “mouse PIEZO1 in the cryo-EM complex with mouse MDFI, E2JF22 1-2547” returned a stoichiometry N of 3.
